The results in this text go back to publication doi:10.1101/2022.10.12.511968v1 (biorxiv, 2022).

For data set [1], the target named is T1, METTL7A (TMT1A1; N-GST-METTL7A) (Homo sapiens, UniProt Q9H8H3).
T1 sequence (Q9H8H3 1-244): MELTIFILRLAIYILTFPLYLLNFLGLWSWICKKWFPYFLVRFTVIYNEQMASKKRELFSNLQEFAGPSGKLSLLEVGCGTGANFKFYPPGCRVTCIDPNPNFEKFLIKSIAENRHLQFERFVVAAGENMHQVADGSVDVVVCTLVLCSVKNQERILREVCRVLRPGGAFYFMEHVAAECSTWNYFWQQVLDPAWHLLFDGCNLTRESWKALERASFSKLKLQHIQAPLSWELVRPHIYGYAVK
Briefly: TSL S-methylation, TMSL formation by LC-MS/MS, single time-point. Format: biochemical.

In data set [2] the target is T1, METTL7A (TMT1A1; N-GST-METTL7A). The data set is described as above. The class given is biochemical. This is another data set of the same source.
Substrate in data set [3]: C[S+](CC[C@H](N)C(=O)O)C[C@H]1O[C@@H](n2cnc3c(N)ncnc32)[C@H](O)[C@@H]1O
Put plainly: purified protein. The note with it: 250 µM TSL (saturating), DMPG, pH 7.0, 37 °C, varied: cofactor.

Substrate in data set [4]: C[C@]12CCC(=O)C=C1C[C@@H](S)[C@@H]1[C@@H]2CC[C@@]2(C)[C@H]1CC[C@@]21CCC(=O)O1
Put plainly: purified protein. The settings on record: 100 µM SAM, DMPG, pH 7.0, 37 °C.

The IC50 is the concentration that gives 50% inhibition. Read a low IC50 as inhibition by little substance. In data set [1], `CC(N)c1cccc(Cl)c1Cl` (stereo not drawn) [DCMB, 2,3-dichloro-α-methylbenzylamine] registered an IC50 of 1.17 µM. That is a single-digit micromolar value.

What is called Ki is a dissociation constant, usually derived from enzyme kinetics or from competition with a known ligand. Low readings indicate higher affinity, high ones lower affinity. As for `Nc1ncnc2c1ncn2[C@@H]1O[C@H](CSCC[C@H](N)C(=O)O)[C@@H](O)[C@H]1O` [SAH], in data set [2], the affinity, expressed as Ki, was 53.9 µM.

B1: METTL7A (TMT1A1; N-GST-METTL7A) (Homo sapiens) (protein)
chain: MELTIFILRLAIYILTFPLYLLNFLGLWSWICKKWFPYFLVRFTVIYNEQMASKKRELFSNLQEFAGPSGKLSLLEVGCGTGANFKFYPPGCRVTCIDPNPNFEKFLIKSIAENRHLQFERFVVAAGENMHQVADGSVDVVVCTLVLCSVKNQERILREVCRVLRPGGAFYFMEHVAAECSTWNYFWQQVLDPAWHLLFDGCNLTRESWKALERASFSKLKLQHIQAPLSWELVRPHIYGYAVK
The term Km denotes the substrate concentration at which the rate is half of its maximum. In the case of B1, the values for the Km in data set [3] and in data set [4] were 53.73 µM and 39.4 µM, respectively.

B2: METTL7B (TMT1B1; N-GST-METTL7B) (Homo sapiens) (protein)
chain: MDILVPLLQLLVLLLTLPLHLMALLGCWQPLCKSYFPYLMAVLTPKSNRKMESKKRELFSQIKGLTGASGKVALLELGCGTGANFQFYPPGCRVTCLDPNPHFEKFLTKSMAENRHLQYERFVVAPGEDMRQLADGSMDVVVCTLVLCSVQSPRKVLQEVRRVLRPGGVLFFWEHVAEPYGSWAFMWQQVFEPTWKHIGDGCCLTRETWKDLENAQFSEIQMERQPPPLKWLPVGPHIMGKAVK
As to B2, the Km in data set [4] was 32.5 µM.
